Laboratory results taken from patent US20260242441A1.

Target: CD45 (PTPRC) phosphatase, endogenous, of Jurkat cells and human PBMC (human) (UniProt P08575)
Assay: cell-based or functional assay

## soluble recombinant human BTN2A2-Fc fusion protein (baculovirus / insect cell derived)
  expansion of CD4+CD25+CD127low/-Foxp3+ Treg cells in human PBMC MLR, with or without CD45 inhibitor: 2 fold
